Laboratory results as given in IntAct's records for PubMed 24417819.

B1: Tetratricopeptide repeat protein 7A (Homo sapiens), Q9ULT0 (parent)
chain: MAAKGAHGSYLKVESELERCRAEGHWDRMPELVRQLQTLSMPGGGGNRRGSPSAAFTFPDTDDFGKLLLAEALLEQCLKENHAKIKDSMPLLEKNEPKMSEAKNYLSSILNHGRLSPQYMCEAMLILGKLHYVEGSYRDAISMYARAGIDDMSMENKPLYQMRLLSEAFVIKGLSLERLPNSIASRFRLTEREEEVITCFERASWIAQVFLQELEKTTNNSTSRHLKGCHPLDYELTYFLEAALQSAYVKNLKKGNIVKGMRELREVLRTVETKATQNFKVMAAKHLAGVLLHSLSEECYWSPLSHPLPEFMGKEESSFATQALRKPHLYEGDNLYCPKDNIEEALLLLLISESMATRDVVLSRVPEQEEDRTVSLQNAAAIYDLLSITLGRRGQYVMLSECLERAMKFAFGEFHLWYQVALSMVACGKSAYAVSLLRECVKLRPSDPTVPLMAAKVCIGSLRWLEEAEHFAMMVISLGEEAGEFLPKGYLALGLTYSLQATDATLKSKQDELHRKALQTLERAQQLAPSDPQVILYVSLQLALVRQISSAMEQLQEALKVRKDDAHALHLLALLFSAQKHHQHALDVVNMAITEHPENFNLMFTKVKLEQVLKGPEEALVTCRQVLRLWQTLYSFSQLGGLEKDGSFGEGLTMKKQSGMHLTLPDAHDADSGSRRASSIAASRLEEAMSELTMPSSVLKQGPMQLWTTLEQIWLQAAELFMEQQHLKEAGFCIQEAAGLFPTSHSVLYMRGRLAEVKGNLEEAKQLYKEALTVNPDGVRIMHSLGLMLSRLGHKSLAQKVLRDAVERQSTCHEAWQGLGEVLQAQGQNEAAVDCFLTALELEASSPVLPFSIIPREL

Variants of: B1
Settings: with PI4K2A

| effect of a mutation on the interaction | Variant |
| --- | --- |
| decreasing interaction | A832T |
| decreasing interaction | E71K |
